This series is described as follows: soluble on expression in E. coli; label from the status in PepcDB or PDB records.
Consider “MHYDVIVIGGGPSGLMAAIGAAEEGANVLLLDKGNKLGRKLAISGGGRCNVTNRLPLDEIVKHIPGNGRFLYSAFSIFNNEDIITFFENLGVKLKEEDPGRMFPVSNKAQSVVDALLTRLKDLGVKIRTNTPVETIEYENGQTKAVILQTGEVLETNHVVIAVGGKSVPQTGSTGDGYAWAEKAGHTITELFPTEVPILSNEPFIRDRSLQGLALRDINLSVLNPKGKAIISHKMDMLFTHFGLSGPAALRCSQFVVKALKKFKTNTIQMSIDALPEENSEQLFQRMLKQMKEDPKKGIKNVLKGYVPERYFLFLLEKNEIDGSEQAGQVSHEKIRALVKDFKEFTVNVNGTQSIEKAFVTGGGVSVKEINPKEMSSKFTNGLYFCGEVLDIHGYTGGYNITSALVTGRIAGTTAGENAKMQY”, for which the “soluble on expression in E. coli” value was “soluble”. The result for “MHYPEPISKLIDSFMKLPGIGPKTAQRLAFHTLDMKEDDVVQFAKALVDVKRELTYCSVCGHITENDPCYICEDKQRDRSVICVVEDDKDVIAMEKMREYKGLYHVLHGSISPMDGIGPEDINIPSLIERLKSDEVSELILAMNPNLEGESTAMYISRLVKPIGIKVTRLAQGLSVGGDLEYADEVTLSKAIAGRTEM” reads “not soluble”; that for “MIAAEAFAPHAALAQDLIPHAADTGDGSHDLAHIHRVFRNAMRIHAGEGGDGNVLAASVLLHDCVAVEKNSPLRAQASRLAAEKASGILAGLGWQKQDIDAAAHAITTHSFSANIEPQTLEAKILQDADRLDAIGMVGAARCFYIAGRMGSALYDPADPLAKERPLDDRAFAIDHFETKLFKLADGFRTETGRQMAKARHERLKQVLDLFLDEILEHHHHHH”, “soluble”. To “MIAKEKILKGFETAEARWARFGPYYAMFPLEFAFDVVEKYSKNGDYIIDPFAGRCSSIYAGGVLGRNSLGLEINPVGWLYGTVKLHPAEKEEVIDRLLEIYSKRNYYNRAIQKMPEFYRICYCDEVLKFLLAARTHLDWRNNKVDATLMSILLIYLHAKIGEGLSNQMRMTKSMGMNYSVQWWKKNNMTTPPEINPCDFILKKIEWRYEKGKPKVSESAVVFGDSSNKLISIAERAINNDIKFSLLFTSPPYYSITDYHADQWLRLWLLGGSENPQSLKDKHKGRFVNKQEYYDLLDNVFGLCAKMMKRESTVYVRTDKREFTFNSTLEILKRHFPNHSVKIVEKPLTKDTKTQTKLFGDKTMKPGEVDIIMSRK” belongs “not soluble”; to “MIAMAQQDVKPTRSELINLKKKIKLSESGHKLLKMKRDGLILEFFKILNEARNVRTELDAAFAKSTEKINLASAVNGMVAVRSTAFTAKESPEIQLSGHNIMGVVVPKISSTGVRKSLYERGYGIIGTNSYIDETADAYEDLVEKIITAAELETTMKRLLDEIEKTKRRVNALEFKVIPELIDTMKYIRFMLEEMERENTFRLKRVKARMRDLEHHHHHH”, “not soluble”. Consider “MIANRPQHEKWAVIVNEFGEVGIDGAALLNDELAVAEIAGGCLCCVAGPQMTATVATLLRREKPDRLLIEASGLAHAAGVIDELRAKPLGEALEVAAVLTLVDPRQFIQPDYHRQPLYRDQISIADVLVANKIDTADIPTMEAFRAQAAALFPPKSLVGEVRDGQLDVAWLDAELAAKPRYRPAVLPDNASAWQSAGWTFDPELNFDGERLTRLFDGLPAKVPGLVRAKGVFRVLDSWVWLNWAAGQWGAAQVSWRRDSRFELIAPEFDAAAVEAWLKECLELEHHHHHH”, for which the “soluble on expression in E. coli” value was “not soluble”. To “MIAVIFEVWPAEGEKQHYLDIAAGLRAELETIDGFLSIERFQSISNPEKMLSLSFFRDEQAVRAWRNTLPHRTAQALGRSGVFSDYRLRIAHVIRDYGLLEREEAPADSRDAHPVEGSSLG” belongs “not soluble”; to “MIAVSFKCRCQILRRLTKDESPYTKSASQTKPPDGALAVRRQSIPEEFKGSTVVELMKKEGTTLGLTVSGGIDKDGKPRVSNLRQGGIAARSDQLDVGDYIKAVNGINLAKFRHDEIISLLKNVGERVVLEVEYELPPVSVQGSSVIFRTVEVTLHKEGNTFGFVIRGGAHDDRNKSRPVVITCVRPGGPADREGTIKPGDRLLSVDGIRLLGTTHAEAMSILKQCGQEAALLIEYDVSVMDSVATASGPLLVEVAKTPGASLGVALTTSMCCNKLVIVIDKIKSASIADRCGALHVGDHILSIDGTSMEYCTLAEATQFLANTTDQVKLEILPHHQTRLALKGPDHAALVSSSFSPTSMSAYSLSSLNMGTLPRSLYSTSPRGTMMRRRLKKKDFKSSLSLASSTVGLAGQVVHTETTEVVLTADPVTGFGIQLQGSVFATETLSSPPLISYIEADSPAERCGVLQIGDRVMAINGIPTEDSTFEEASLLLRDSSITSKVTLEIEFDVAESVIPSSGTFHVKLPKKHNVELGITISSPSSRKPGDPLVISDIKKGSVAHRTGTLELGDKLLAIDNIRLDNCSMEDAVQILQQCEDLVKLKIRKDEDNSDEQESSGAIIYTVELKRYGGPLGITISGTEEPFDPIIISSLTKGGLAERTGAIHIGDRILAINSSSLKGKPLSEAIHLLQMAGETVTLKIKKQTDAQSASSPKKFPISSHLSDLGDVEEDSSPAQKPGKLSDMYPSTVPSVDSAVDSWDGSAIDTSYGTEGTSFQASGYNFNTYDWRSPKQRGSLSPVTKPRSQTYPDVGLSYEDWDRSTASGFAGAADSAETEQEENFWSQALEDLETCGQSGILRELEATIMSGSTMSLNHEAPTPRSQLGRQASFQERSSSRPHYSQTTRSNTLPSDVGRKSVTLRKM”, “soluble”; to “MIAYRSNQGVTRQRQQTKVFKLVSTYDKVAVKNAIRAAYRQVFERDLEPYIINSEFTALESKLSNNEINVKEFIEGLGTSELYMKEFYAPYPNTKVIEMGTKHFLGRAPLNQKEIQQYNQILASQGLKAFIGAMVNGMEYLQTFGEDTVPYRRFPTLPALEHHHHHH”, “not soluble”.

Take “MICDNCKTREAVILQPHTGRKLCKECFIEDIRKRVEMEARKQEIVNSNKILLAVSGGKDSLVLADTLSQFIHPSRLIAFNINEGIKGYNRNEYVKKLEEYLKDLGIELIKSGFKEEVGFSLDEMLEASLKKKLNVSACTFCGGFRRKLINEAGIKVAADYVATGHNLDDEVQTIVINLIRGDLLRLIRFGDKPLMVSSKFVMRVKPLRKIYEWETTMYAHLKGFEFQETECPYISQKPTLRAKVRDLLYKLEEKKPGTLLRILEQFDEISEKIKKEYRLTNELPNCVICGEPTTPGRMICKNCELLIRSGLMPQEYQKYLPIS”: the “soluble on expression in E. coli” value was “not soluble”.

As to “MIDCLVMAGGQGARMGFREKPLLSVCGQPMLLRVLSALRMACRRIAIVYSRHTPGVKRLCLSGALGAVECIEGPGSYVKDLRLGFSHISTPLLVAPADMPFLNPHHLNLFIDRALADGASIVNLSLRGRGLTGLSVFKHHRGWWRDVETNGCWALDVDTWEDFRRAGELCGGECTGEGLRLELLEHHHHHH”, the “soluble on expression in E. coli” value was “not soluble”. The result for “MIDFSNFYQLIAKSPLSHWLETLPAQVAAWQRDALHGKFREWERAVEFLPELTPWRLDLLHSVTAESETPLSEGHQRRIENLLKNLMPWRKGPYSLYGINIDTEWRSDWKWERVLPHLSDLTGRTILDVGCGSGYHMWRMIGAGAHLAVGIDPTQLFLCQFEAVRKLLGNDQRAHLLPLGIEQLPALEAFDTVFSMGVLYHRRSPLDHLWQLKDQLAPGGELVLETLVVEGDENTVLVPGDRYAQMRNVYFIPSAAALKMWLEKCGFIDVRIVDACVTSTEEQRRTEWMTTESLADFLDPQDQRKTVEGYPAPLRAVIIATKPETQQSLAKKAR” reads “not soluble”. The result for “MIDKSGYRANVAIVLLNKQNRVFWGQRRNRTSWQFPQGGVATGETPLQAMYRELHEEIGLRPQDVEVIASTRDWYKYDIPDSLVRTKEPICIGQKQKWFLLKLKSPESYIDLDANDSPEFDNWRWVSYWYPINHVVYFKQEVYRKALTYFKEYIA” reads “not soluble”; that for “MIDNVADGKIEADSKQAVNGGQLRDYTEQQMKIVLDDAKKYTDEQVKDRVSNGVNEAKSYTDMKFETLSYVVEDVRKAARQAVAMGLAVSNLRYYDIPGSLSLSFGTGIWRNQSAFAIGVGYTSEDGNIRSNLSITSADSHWDIGAGLRIKLN”, “not soluble”. To “MIDQFMSMSELIDHTEEHKDWQILYNERVAKSLITAVHGGAIERGTSEIAQLISEIGGYSFYTFKGIRKNKNHELHVTSKHFDEPILNELVPTHEVVVSLHGCMGNDVAVYIGGKDLELSYEITQQLQKIGIVVKPAPAHIAGMQTENFVNKGKRDAGVQLELTVALRKQCFKNNKYNLHDRENRENWSQLMFSFSTAIANALKILNDLEHHHHHH” belongs “not soluble”; to “MIDREQIVRIVSDYLSTGETFLVEVAIHPGNRILVELDSAQGVCIDECVALSRHIESQVDRDIEDYELEVGSTGLTSPLKVMRQWENCIDSELSVLLTNGMKETGRLITVAPEAIKLEVVRMVKPEGAKRKKPETQELTIVMADIKQAVRII”, “not soluble”; to “MIDVKSIILIVLDGLGDRPGEILGYRTPLQAAYHPNMNRMASLGMTGLMHPISPGIRSGSDTSHMSLLGYDPRVYYQGRGPFEALGLHMDMKPGDLAFRANFATNRDGKIIDRRAGRINAGNDQLASAISIDIGNYKFRVKSGVEHRAALVVSGPNLSDKISDSDPHSEGKPPEPIRPLDPSADSTAKIMNEYLKRIREILRDHPVNVEREKNGQIPGNELLIRSAGKVPDIPSFQEKNGITGACVVGSPWLKGLCRLLGMAVIDVPGAAGTINSNYTGKIKTAIDASKRYDFVLVNIKATDVAGHDGDYELKRRVIEDIDIAMEPLLGQSDRIVVAITGDHSTPCSVKDHSGDPVPIVFYTDGIYSDDVKLFDEVSAMKGALRITTQDVLNILMEMAGRAEKFGSLEHHHHHH”, “soluble”.

Turning to “MIEDYALIGDMQIAALVCQDGTVDWLCLPRFDSHAVFAGLLGTEEHGFWRLGPAHASDAEPPRASRRTYRGDSLILESEWDTPRGTVRVTDFMPPRDGAPQLIRIVEGVTGRVPMRSALEHHHHHH”, the “soluble on expression in E. coli” value is “soluble”.

Take “MIEINDVNKKYQQTTVLNEINERIPSGGITSIIGPNGAGKSTLLSIMSRLLAADSGNVLFNGLDVAKTSGDKLATILSVLRQENHFTSRLTVSDLVGFGRYPYSRGRLNKNDRQHIDAAMEFLNLMPLKDRYLDELSGGQRQRAYVAMVLCQDTSYILLDEPLNNLDMKHCVAMMKQLRRAADELHKTIILVIHDINFASAYSDHIIAMKNGEVIYRGAPAEIMQPSILEEIFDIKISIEKVQGQHIAVYYR”: the “soluble on expression in E. coli” value is listed as “not soluble”. The result for “MIEITFLGGGGGRFVTITQVRATGGFFIKASKNIYVDPGPGALVRMWRYKIDPRKVDVLFISHRHTDHCNDAEVLVEGMTYGVTKKRGTLIGSKSVVHGDENHTPALSKYHLDALEEVHAPNPGDRFKIGEDEMIITPSLHSDPTTIGFRLKTSYGDISYIPDTEYFEELVKWHDGARVIIAAVTRPRDMRIPFHLSSEDAVYLLKSMKQKPEVFIMTHAGMKMHFAGPYKEAQFIQNLTGVKTYVAKEGFKVSIGKEISVKTLRPARFVLEHHHHHH” reads “soluble”; that for “MIEQFNFDIRLIFAILNGKVSAAINRKLYRNFRQNGLEISPEQWTVLIFLWEKDGVTQQELCNATFKDKPSMTRLIDNMERQHLVVRISDKKDRRTNLIHLTKDGKELEEKARIIAGQTLKEALHGITLEELSIGQEVLKKVFYNTKD”, “not soluble”.

Source of the values: the DeepSol protein solubility set.
